This note sets out measurements from US20020045208A1.

A value given as a limit tells only on which side of the number the result lay.

For the test, the target named is bFGF receptor molecules present on the surface of the B16 cells (mouse). As to the kind of experiment: cell-based or functional assay.

Substance “bFGF-MLA fusion protein (basic fibroblast growth factor fused to the N terminus of rMLA) (from UniProt P09038 134-288)” displayed a cytotoxic activity on B16 cells (WST-1 viability), IC50 of 0.048 µg/mL and an increase of toxicity against rMLA alone on B16 cells greater than 100 fold.
In turn, “bFGF-MLA/rMLB associated fusion protein (bFGF-MLA coupled to rMLB under co-folding) (from UniProt P09038 134-288)” had a cytotoxic effect on B16 cells (MTT viability), IC50 of 0.01 µg/mL and an improvement of the IC50 value on B16 cells against bFGF-MLA of 5 fold.
